Reference: PMC8503589 (The Journal of Biological Chemistry, 2021)

Tests used:
C. botulinum ODC (aODC) = tested on: T1, C. botulinum ODC (aODC)
T1 construct: gene CLI_3176

[1] = tested on: F. necrophorum ODC (aODC); settings: 50 mM HEPES pH 7.7, 100 mM NaCl, 20 μM PLP, 1 mM DTT, 26 °C
B. cihuensis ADC = tested on: T2, B. cihuensis ADC; settings: 50 mM HEPES pH 7.7, 100 mM NaCl, 20 μM PLP, 1 mM DTT, 26 °C
T2 construct: gene aADC

purified protein [2] = substrate: N=C(N)NCCC[C@H](N)C(=O)O; test: purified protein; settings: 50 mM HEPES pH 7.7, 100 mM NaCl, 20 μM PLP, 1 mM DTT, 26 °C
purified protein [3] = substrate: NCCC[C@H](N)C(=O)O; test: purified protein; settings: 50 mM HEPES pH 7.7, 100 mM NaCl, 20 μM PLP, 1 mM DTT, 26 °C
purified protein [4] = substrate: NCCCC[C@H](N)C(=O)O; test: purified protein; settings: 50 mM HEPES pH 7.7, 100 mM NaCl, 20 μM PLP, 1 mM DTT, 26 °C

Molecule: NCCCC[C@H](N)C(=O)O [L-lysine]
- Km (C. botulinum ODC (aODC)): 2000 ± 90 µM
- Km [1]: 4000 ± 1700 µM

Molecule: N=C(N)NCCC[C@H](N)C(=O)O [L-arginine]
- Km (B. cihuensis ADC): 450 ± 10 µM
- Km (C. botulinum ODC (aODC)): 3800 ± 250 µM
- Km [1]: 19000 ± 2300 µM

Molecule: NCCC[C@H](N)C(=O)O [L-ornithine]
- Km (C. botulinum ODC (aODC)): 600 ± 30 µM
- Km [1]: 650 ± 30 µM

B1: C. exile ODC (Caldisericum exile AZM16c01) (protein)
chain: MEQERAPLYEAVSKYIKRKMIPFHMPGHSQGKGAPKILKRLFGDKFFDFDLTEVSGLDYLHYAQGVIREAENLASSLYGTEATIFLVNGTTAGVHAMILDSVRENEKIIIGRNSHRSVIGGILLAKAKPVFVQPEFNEEFGIITNVTPESIKKAITENPDAKAVLVTTPNYYGLQGRIKDIIDIVHENGMRALVDEAHGAHFPFNSKFPKSAIYLGADLVTQSAHKTLPTLTQTSFLHIPSKDVNVDRIEQILSIIESSSPSYIFMTALDVARREMALHGKEMWDKAIEVAEYARERISALDGFKVITDKTINGKDVYAFDPIKLTINVQELGYSGFEFEHILNKNGIEIELADLQNVLLFITIGTSKRDIDTLVSVLKRIEPRKEKSTVRMPKLPEAPSFAMLPFEAFQREFEVVPLRETKGRVSWGIVAPYPPGIPVLAPGMIIDEECIEFTQEVFEKGGLVQGSIRYGSEIAIRVVKGE
- Km (purified protein [2]): 540 ± 40 µM
- kcat (purified protein [2]): 0.04 ± 0.002 s⁻¹
- kcat/Km (purified protein [2]): 82 ± 3.2 M⁻¹ s⁻¹
- Km (purified protein [3]): 180 ± 10 µM
- kcat (purified protein [3]): 0.11 s⁻¹
- kcat/Km (purified protein [3]): 590 M⁻¹ s⁻¹

B2: H. thermocellum ADC (aADC) (Acetivibrio thermocellus ATCC 27405) (protein)
chain: MVLRMNQLKTPVFDAVKRYVESNVIQFHVPGHKQGAGLEELREYIGETALKMDANGMEDLDFANNPTGVIYESEMLAAQAFGAQHAYFLVNGTTSGVQAMIMSACEPGDKIILPRNAHKSTIGGIILSGAVPVYVQPEINEKLGIAMGITVESLKKAIKENPHAKAVFIINPTYYGIASDLKSLVRIAHRYEMAVLVDEAHGAHMSFHDDFPLTAMEVGADMSAVSTHKTGGSLTQSSLLLLRGNMISPERVKQVLNLTYTSSASYLLMCSLDIARKQLATKGSDMLEETLRLARMAREEINKIEGLYAFGKELIGTPGCHDFDETKLGICVSGLGYTGYEMEAKLRKEYNIQIEMSDLSNILAIVSIGDREENLVALINALKDIAAKTEKKEYPKPPIIPPTPKMIVSPRDAFYSPKKIVPLDKSVGEISGEMVMAYPPGIPVVCMGERITQDIVDYIKILKEQKTQLQGTADPYIDHIMVLGVD
- Km (purified protein [2]): 130 ± 10 µM
- kcat (purified protein [2]): 0.05 s⁻¹
- kcat/Km (purified protein [2]): 410 M⁻¹ s⁻¹

B3: L. ferroxidans LDC (Leptospirillum ferrooxidans C2-3) (protein)
chain: MTPYDHNRTPLFDAMVALAESRKVSFHTPGHKSGKGISTRFRKFVGPKVFSIDLTCLDEVDSLQKPRGVIREAQELAADIYGADQSFFLVNGTSGGNQAMILSVMKPGEPILLTRILHKSVVSGLIMTDCKPIFIPLQSTPDCDLLLNDRTDTIIQAMNRHPEAKKLFLTSPNYYGVTLDLPTIIQEAHSRGVTVLVDEAHGPHLHFHDDLPPSAMASNADLCVQSTHKIIGGMTQASILHAKKANIDIERLTSVLRYLQTTSPSYILMASLDLARMQMATEGKKLLSKAIDLARKARERIRKIPGLTCIDRDEVKAASGGDNDLDETKLAIGVKGIGLTGYQVSQKLNHEFGIQVEMADLHHVLVIVSIGDHREDLDRLVRAMEAISHQAMTLKSIIPINVKPPYAIASSRMNPREAFFSSHQSVPLEEALGKTAADIVTVYPPGIPLLIPGEEITQTVLDHLILMRETGATLDGLDSDNRLINIV
- Km (purified protein [4]): 370 ± 70 µM
- kcat (purified protein [4]): 0.25 s⁻¹
- kcat/Km (purified protein [4]): 700 M⁻¹ s⁻¹
- Km (purified protein [3]): 28000 ± 7200 µM
- kcat (purified protein [3]): 0.17 s⁻¹
- kcat/Km (purified protein [3]): 4.2 M⁻¹ s⁻¹

B4: Psychrilyobacter sp. S5 ADC (Psychrilyobacter piezotolerans) (protein)
chain: MQNKTPLFDALKNYHKTDIVSFDVPGHKKRFQNEFSDYVGHKIIELDTNSMKELDILNNPTGVIREAHQLMADAYSADEAFFLVNGTTSGIQTMVMSACNPGDKIILPRNVHKSAINALILSGATPVYIDPEVDETLGISLGISVEKIKEALIKDPDIKAVFIINPTYYGAVSDLEEIIKICHEKNMVVLVDEAHGAHFPFHEKFPKNAMALGADMSAVSIHKTGGSLTQSSVLFLNHRRIKQERVKNMLNLTQTTSASYLLMTSLDVARKTLVTQGDEIFNDLLEMISKFREELNSIPGIRCFKSILSDKLYDFDDTKIGINLHGLGLTGFEGYDILREKYNIQMELADTHNILGIASIGDTWEDYQKLIDALKEMAENYEGNNQLIDFNELESLELVVSPRDAFYSETESIPLSEAIGKVSGESIMVYPPGIPLLIQGERITKDLIDHIYFLKEQKAVITGMNDKTLNNISILKGEHR
- Km (purified protein [2]): 210 ± 20 µM
- kcat (purified protein [2]): 0.3 s⁻¹
- kcat/Km (purified protein [2]): 1400 M⁻¹ s⁻¹
- Km (purified protein [4]): 6600 ± 1300 µM
- kcat (purified protein [4]): 0.06 s⁻¹
- kcat/Km (purified protein [4]): 9.5 M⁻¹ s⁻¹

B5: M. blatticola ADC (Methanimicrococcus blatticola) (protein)
chain: MDQNATPIIDALREFDQKNITSYDVPGHKRGIREDDFQKLVGKEVYLMDVNSPVGMDTFAHPKGVIKHSLELAAEAYKADNAFYLVNGSSSGVQIMIMTVCYDGEKILIPRNAHKSVTNSLILSGAVPVFMEPEINQNFAIASGMTLKTIQKYVEANPDAKALFLVYPTYYGACADLEQIIEYAHSKDIVVMVDQAHGAHFSFSSALPKSAAELGADLVVASTHKTGGSLTQSAMLLHNEGLVKYHSIKKRVLMFHTTSPSYLLMASLESSRKLLATQGEEIFHELVHECRKVKKEISKIPGLSVLDENEGVTTMTYDPTKIVINVTKLGLDGFDVYDIMFEKYGIQMELAEPTIVLAVIGIGDTKETIWRLVDAFRDLSDTYYGKYEMLDIPEEIVYVPPQILSPRQAFYADKVSVKIGEAVGRVAAEAVMIYPPGIPICIPGELITAETIEEILYCQENSDCVQKDSKEKDHILVVDDSTE
- Km (purified protein [2]): 650 ± 60 µM
